The values that follow come from the nanobody polyreactivity screen of Harvey et al. (2022).

This series in a line: yeast display, Sf9 membrane polyspecificity reagent, FACS + sequencing; frameworks hold sequencing errors. Put shortly: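 Using colony PCR, genes from sorted yeast display clones were amplified, then sequenced on MiSeq at 2 × 250 and filtered by CDR length. The clones had been stained with 10% biotinylated, detergent-solubilized Sf9 membrane reagent for 1 hour at 4 °C and sorted by FACS into low and high (top ~1%) gates on anti-HA and streptavidin fluorescence. Polyreactivity labels come from the gate of origin.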
On to “QVQLVESGGGLVQAGGSLRLTCAASVFTWSYAMVWDRHATGKERELVATISDGVSTNYSDSVKGRFTISRDNAKNSVYLQMNSLKPEDTAVYYCAVRVSGPRGYDYEYWGQGTQVTVSS”, for which the “polyreactivity (PSR sort gate)” value was “low polyreactivity”.

For “QVQLVESGGGLVQAGGSLRLTCAAYGRIFRYYPMGWYRQAPGKERDLVAAINWRGTSTSYADSVKGRFTISRDIAKNTVYLQMNSLKPEETAVYYCARVAWSESDWQKMDYWGQGTQVTVSS”, the “polyreactivity (PSR sort gate)” value was “high polyreactivity”.

Turning to “QVQLVESGGGLVQAGGSLRLTCADSGFIFYRYAMVWYRQAPGKERELVAAISTRGGSTFYADSVKGRFTISRDNAKNTVYLQMNSLKPEDTAVYYCATGPLRAYDYWGQGTQVTVSS”, the “polyreactivity (PSR sort gate)” value is given as “high polyreactivity”.

As for “QVQLVESGGGLVQAGGSLRLTCAPSGFIFTPNAIGWYRQAPGKERELVAAISRGGGSTYYADSVKGRFTISRDNAKNTVYLQMNSLKPQDTAVYYCNARSKNGGTTFGYWGEGTQVTVSS”, the “polyreactivity (PSR sort gate)” value is reported as “high polyreactivity”.

Regarding “QVQLVESGGGLVQAGGSLRLTCDASGRTFYQNTMGWYRQAPGKERELVAAISYRVGRTYYADSVKGRFSISSDNAKNTVYLQMNSLKPEDTAVYYCAAGVWWWTIPYEYWGQGSQVTVSS”, the “polyreactivity (PSR sort gate)” value was “high polyreactivity”.

With “QVQLVESGGGLVQAGGSLRLTCPASGTIFWNYAMGWYRQAPGKERELVAAISFSGGSTYYADSVKGRFTISRDNAKNTVYLQMNSLKPEDTAVYYCNADYSYVGEYDYWGQGTQVTLSS”, the “polyreactivity (PSR sort gate)” value is listed as “low polyreactivity”.

Consider “QVQLVESGGGLVQAGGSLRLTCSASGSTFYYYAMGWYRQAPGKERELVAAITISGGSTYYADSVKGRFTISRDKAKNTVYLQLNSLKPEDTAVYYCNVDDRETRDDYWGQGTQVTVSS”, for which the “polyreactivity (PSR sort gate)” value was “low polyreactivity”.

In the case of “QVQLVESGGGLVQAGGSLRLTGAASGRIFRSYAMGWYRQAPGKERELVASISGSTTYYADSVKGRFTISRDNAKNTVYLQMNSLKPEDTAVYYCAVKYDAWGYGYRHFDYWGQGTQVTVSS”, the “polyreactivity (PSR sort gate)” value is “low polyreactivity”.

With “QVQLVESGGGLVQAGGSLRLTSAASGSIFRYYTMGWYRHAPRKERELVAAISRNGGSTYYADSVKGRFTISRDNAKNSVYLQMNSLKPVDTAVYYCNADGGDWFGYVGMDYWGQGTQVTVSS”, the “polyreactivity (PSR sort gate)” value is recorded as “high polyreactivity”.

“QVQLVESGGGLVQAGGSLRLTSAASVSTFYNYAMVWYRQAPGKERELVASMTWNGGSTYYADSVKGRFTISRDNAKNTVDLQMTSLKPEDTAGSYCAAEYRDQYPTYPYYRPGYDYWGQGTQVTVSS”: the “polyreactivity (PSR sort gate)” value is listed as “low polyreactivity”.

For “QVQLVESGGGLVQAGGSLRLTSAGSGFTFTIYAMGWYRQAPGKERELVATISGRAGRTYYADSVKGRFTISRDNAKNTVYLQMNSLKPEDTAVYYCNAGQWRYPGLYYYWGQGSQVTVSS”, the “polyreactivity (PSR sort gate)” value was “high polyreactivity”.

Turning to “QVQLVESGGGLVQAGGSLRLTSDASGFTFRSNAMGWYRQAPGKERELVAAITSRGGSTYYADSVKGRFTISRDYAKNTVYLQMNSLKPEDTAVYYCAADGRSRKFDYWGQGTQVTVSS”, the “polyreactivity (PSR sort gate)” value is “high polyreactivity”.

As to “QVQLVESGGGLVQAGGSLRSSCASSGSIFDGNTMGWYRQAPGKERELVAAISYSGGSTYYADSVKGRFTISRDNAKNTVYLQMNSLKPEDTAVYYCAAEWYGYQEDDYWGQGTQVTVSS”, the “polyreactivity (PSR sort gate)” value is “low polyreactivity”.

As to “QVQLVESGGGLVQAGGSLRVCCAASGRIFGNYAMGWYRQAPGKDRELVAAISGGGSTYYADSVKGRFTISRDNAKNTVYVQMNSLKPEDTAVYYCAAKPTYRGYGYGSWGQGTQVTVSS”, the “polyreactivity (PSR sort gate)” value is “low polyreactivity”.

For the sequence “QVQLVESGGGLVQAGGSLRVSCAASGFIFSYNAMGWYRQEPGKERELVAAMSSGGGSTYYADSVKGRFTISRDNAKNTVYLQMNSLKPEDTAVSYCAARVAYTFGYWGQGTQVTVSS”, the “polyreactivity (PSR sort gate)” value was “high polyreactivity”.

For “QVQLVESGGGLVQAGGSLRVSCAASGFIIIGYVMGWYRQSPGKERELVAAITSSGGSTYYADSVKGRFTISRDNAKNTVYLQMNSLKPEDTAVYYWNADIYISPLVQVSKGYDYWGQGTQVTVSS”, the “polyreactivity (PSR sort gate)” value is listed as “low polyreactivity”.

As for “QVQLVESGGGLVQAGGSLRVSCAASGFSFKYYAMGWYRQAPGKERELVAAITKRGGSTYYADSVKGRFTISRDNAKNTVYLQLNSLIPEDTAVYYCAADGRAYERYDYRSDYWGQGSQVTVSS”, the “polyreactivity (PSR sort gate)” value is “high polyreactivity”.

On to “QVQLVESGGGLVQAGGSLRVSCAASGFTFHKYAMGWYRQAPGKDRELVAVISQSASSTYYADSVKGRFTISRDNAKNTVYFQMNGLKPEDTAVYYCNAKYYRYNRRNYWGQGTQVTVSS”, for which the “polyreactivity (PSR sort gate)” value was “high polyreactivity”.

With “QVQLVESGGGLVQAGGSLRVSCAASGFTFRGYAMGWYRQAPGKERELVAAIRRGVITNYADSVKGRFTISRDNAKNTVYLQMHSLKPEDTAVYYCAAGNITPYRYYHGYYQSIYDYWGQGTQVTVSS”, the “polyreactivity (PSR sort gate)” value is recorded as “low polyreactivity”.

As to “QVQLVESGGGLVQAGGSLRVSCAASGFTFRGYAMGWYRQAPGKERELVAAIRRGVITNYADSVKGRFTISRDNAKNTVYLQMNSLKPEDTAVYYCAAGNITPYRYYHGYYQSIYDYWGQGTQVTVSS”, the “polyreactivity (PSR sort gate)” value is “low polyreactivity”.

Regarding “QVQLVESGGGLVQAGGSLRVSCAASGGTFGNNDMGWYRQAPGKEWELFAAIRAAGTTYYADSVKGRFTISRDNAKNTVYLQMNSLKPEDTAVYYCIADTTGYWSYGFQYYGEDYWGQGTQVTVSS”, the “polyreactivity (PSR sort gate)” value is “low polyreactivity”.

On to “QVQLVESGGGLVQAGGSLRVSCAASGLTFDTNAMGWYRQARGKERELVAAITDSGDSTYYADSVKGRFTISRDNAKNTVYLQMNRLKPEDSAVYYCAARRSNLAWGRRRMYYWGQGTQVTVSS”, for which the “polyreactivity (PSR sort gate)” value is “high polyreactivity”.

With “QVQLVESGGGLVQAGGSLRVSCAASGLTFSVYTRGWYRQAPGKERELVAAITTSGGRTYYADSVKGRFTISRDNAKNTVYLQMNSLKPEDTAVYYCAAVRTGDTTGTMGYWGQGTQVTVSS”, the “polyreactivity (PSR sort gate)” value is given as “high polyreactivity”.

On to “QVQLVESGGGLVQAGGSLRVSCAASGNSFTGYVMGWYRQAPGKERELVAAIRSGGSTYYADSVKGRFRISRDNAKNTVYLQMTSLKPEDTAVYYCNARYRYRLRGYDYWGQGTQVTVSS”, for which the “polyreactivity (PSR sort gate)” value is given as “high polyreactivity”.

Take “QVQLVESGGGLVQAGGSLRVSCAASGRIFGYNAMGWSRQAPVKERELDAAIRGGGSTYYADSVKGRFTISRDNAKHSVYLQMYSLKPEDTAVYYCAATSYTYVLSPYRGDYWGQGTQVTVSS”: the “polyreactivity (PSR sort gate)” value is “high polyreactivity”.

Turning to “QVQLVESGGGLVQAGGSLRVSCAASGRTFARYAKGWYRQAPGKERELVAVISRTGSTYYADSVKGRFTISRDNAKNTVYLQMNSLKPEDTAVYYCATVYYYLAYGWSYSDMDYWGQGTQVTVSS”, the “polyreactivity (PSR sort gate)” value is “high polyreactivity”.

On to “QVQLVESGGGLVQAGGSLRVSCAASGRTFDSYAMGWYRQAPGKEREFVAAISYSGTSTYYADSVKGRFTISRDNAKNTVYLQMNSLKPEDTAVYYCNAARETRPRDYYWGQGTQVTVSS”, for which the “polyreactivity (PSR sort gate)” value is on record as “low polyreactivity”.

Consider “QVQLVESGGGLVQAGGSLRVSCAASGSIFKNNPMGWYRQAPGKERELVDANRYSGGRTYYAHSVKGRFTISRDHAKNTVYIQMNSLKPEVTAVYDCAAGSIQYRPTYTGDYWGQGSQVTVSS”, for which the “polyreactivity (PSR sort gate)” value is “high polyreactivity”.

As to “QVQLVESGGGLVQAGGSLRVSCAASGSIFRFNVMGWYRQAPGKERELVAAITRGDSTNYADSVKGRFTISRDNAKNTVYLQMNSLKPEDTAVYYCAAGYYYYLRDHDYWGQGTQVTVSS”, the “polyreactivity (PSR sort gate)” value is listed as “low polyreactivity”.

As to “QVQLVESGGGLVQAGGSLRVSCAASGSIFYYAMGWYRQAPGKERELVASIRSGGSTKFADSVKGRFTISRDNAKNTVYLQMNSLKPEDTAVYYCAARGVIRYTYKSTPYDYWGQGTQVTVSS”, the “polyreactivity (PSR sort gate)” value is on record as “high polyreactivity”.

With “QVQLVESGGGLVQAGGSLRVSCAASGSTFCSNAKGWYRQAPGKERELVAAISSGGSTNYADSVKGRFTISRDNAKNTVYLQMYSLKPEDTAVYYCAADRSPEYYWGQGTQVTVSS”, the “polyreactivity (PSR sort gate)” value was “low polyreactivity”.

For “QVQLVESGGGLVQAGGSLRVSCAASGSTFGTYGMGWYRPAPGKERELVADITSGGSTYYADSVKGRFTISRDNAKNTVYLQMNSLTPEDTAVYYCAASWFVWSTAVPYDYWGQGTQVTVSS”, the “polyreactivity (PSR sort gate)” value was “low polyreactivity”.

For “QVQLVESGGGLVQAGGSLRVSCAASGSTFGYYAMGWYREAPGKEREFVAAINYGDGNTYYADSVKGRFTISRDNAKNTVYLQMNRLKPEDTAVYYCATYYWAPTGAHGGYGYWVQGTQVTVSS”, the “polyreactivity (PSR sort gate)” value is “low polyreactivity”.

On to “QVQLVESGGGLVQAGGSLRVSCAASGSTFSAYAMGWYRPAPGKERELVAAISASGGSTYYADSVKGRFTISRDNAKNTVSLQMNSLKPEDTAVYYCNADRWKYELDYWGQGTQVTVSS”, for which the “polyreactivity (PSR sort gate)” value is given as “high polyreactivity”.

Take “QVQLVESGGGLVQAGGSLRVSCAASGSTFVGNAMGWYRQEPGKERELVADITSGGSTNYADSVKGRFTISRDNAKNTVYLQMKSLKPEDTAVYYFAAVYLCSQRREFWGQGTQVTVSS”: the “polyreactivity (PSR sort gate)” value is on record as “low polyreactivity”.

As to “QVQLVESGGGLVQAGGSLRVSCAPSGIIFGGNVMGWYRQAPGKERELVAGITSTGGRTYYADSVKGRFTISRDNAKNTVYLQMNSLKPEDTAVYYCAAVSTLVRGNFNRIRYGYWGHGTQVTVSS”, the “polyreactivity (PSR sort gate)” value was “high polyreactivity”.

Regarding “QVQLVESGGGLVQAGGSLRVSCASSGSIFLDNAMEWYRQAPGKERELVAAISYGDGSTYYADSVKGRITISRDNAKNTVYLQMNRLKPEDTAVYYCAAERYTIPPIYDYWGQGTQVTVSS”, the “polyreactivity (PSR sort gate)” value is “low polyreactivity”.

As for “QVQLVESGGGLVQAGGSLRVSCGASGRTFLFYAMGWYRQAPGKERELVASITGRGGRTSYADSEKGRFTISRDNAKNTVYLQKNSLKPEDTAVYYCAARNPYTSTYYDWGQGTQETVSS”, the “polyreactivity (PSR sort gate)” value is “high polyreactivity”.

Consider “QVQLVESGGGLVQAGGSLSIICAASGFTFRYYAMGWYREAPGKERELVAAISKSGTSTYYADSVKGRFTISRDNAKNTVYLQMNSLKPEDTAVYYCAARRGRRYYYWGQGTQVTVSS”, for which the “polyreactivity (PSR sort gate)” value was “high polyreactivity”.

With “QVQLVESGGGLVQAGGSLSISCAASGSIFLAYDMGWYRPAPGKARELVAAITAGTGSTYYADSVKGRFTISRDNAKNTVYLQMTSLKPDDTAVYYCAAELWGGTYGEYEYWGQGTQVTVSS”, the “polyreactivity (PSR sort gate)” value was “low polyreactivity”.

As for “QVQLVESGGGLVQAGGSLSLICAASGFIFLYYAMGWYRQAPGKERELVADISRGADTKYADSVKGRFTISRDNAKNTVYLQMNSLKPEDTAVYYCATDITTFWFPYPGVELGYWGQGTQVTVSS”, the “polyreactivity (PSR sort gate)” value is “low polyreactivity”.
